The values below are quoted from earlier work in article PMC11426987.

Where two headings read alike, the source gives them in different places.

Data set [1] addresses protein S (Homo sapiens) (UniProt P07225).
For data set [2] the target is unchanged. The source holds these as a separate data set.

Chain of UniProt P07225 (P07225 42-676): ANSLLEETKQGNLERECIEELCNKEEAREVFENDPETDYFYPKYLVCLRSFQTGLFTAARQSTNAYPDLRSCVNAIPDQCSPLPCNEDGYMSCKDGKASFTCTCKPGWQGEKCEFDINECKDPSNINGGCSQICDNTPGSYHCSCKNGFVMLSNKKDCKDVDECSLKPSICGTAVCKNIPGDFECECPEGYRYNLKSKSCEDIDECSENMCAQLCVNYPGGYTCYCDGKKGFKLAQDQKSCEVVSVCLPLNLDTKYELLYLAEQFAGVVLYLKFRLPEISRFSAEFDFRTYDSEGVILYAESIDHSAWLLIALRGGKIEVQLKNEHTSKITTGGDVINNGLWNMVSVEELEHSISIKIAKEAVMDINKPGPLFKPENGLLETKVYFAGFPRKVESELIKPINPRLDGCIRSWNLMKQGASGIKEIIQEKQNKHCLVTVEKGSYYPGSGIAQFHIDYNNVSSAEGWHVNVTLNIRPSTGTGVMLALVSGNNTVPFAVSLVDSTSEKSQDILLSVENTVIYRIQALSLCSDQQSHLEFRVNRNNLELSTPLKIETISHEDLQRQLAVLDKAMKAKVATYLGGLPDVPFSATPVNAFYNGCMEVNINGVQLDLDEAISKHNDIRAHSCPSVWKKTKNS

For the substance TFPI (from UniProt P10646), in data set [1], the equilibrium dissociation constant (Kd) (as a rule, the concentration at which binding is half-saturated) is more than 1000 nM.

In the case of TFPIα (from UniProt P10646), the Kd in data set [2] is 20 nM.
